Assay results published in patent US8741844B2, “Use of mutated antithrombins for treating or preventing coagulation disorders” (Universite Paris-Sud XI, priority 2007, dated 2014).

Experiment: Heparin affinity column elution with NaCl gradient
Assay type: binding
Method: Conditioned media are thawed, pooled, salt concentration adjusted to 0.4 M NaCl and then applied on an heparin immobilized column (Hitrap Heparin 5 ml or Heparin-sepharose CL6B 50 ml, GE Biological) equilibrated with 10 mM Tris, or with 20 mM phosphate buffer, 0.4 M NaCl and 0.1 mM EDTA, pH 7.4. The bound proteins are eluted in the same buffer with a gradient from 0.4 M to 2 M NaCl. The fractions eluted from 0.8 M NaCl and more contained only wild type antithrombin or mutated antithrombins with high heparin affinity. […] The collected fractions are pooled and the salt concentration is decreased either by over night dialysis against 10 mM Tris, or 20 mM phosphate, and 0.1 M NaCl, pH 7.4 at 4° C. or applied on an HiPrep 26/10 desalting column equilibrated with 10 mM Tris, or 20 mM phosphate, and 0.1 M NaCl, pH 7.4. The antithrombin is then concentrated by ion exchange chromatography using a “Resource Q” 1 ml column (GE, Biological) equilibrated with 10 mM Tris, or 20 mM phosphate, and 0.1 M NaCl, pH 7.4 and eluted in the same buffer with a NaCl gradient from […] to 0.5 M or 20 mM to 0.5 M. The antithrombin concentration in each elution fraction is estimated by absorbance at 280 nm with an absorption coefficient ε=0.65 g^−1·l·cm^−1 and the integrity of purified wild type antithrombin or mutated antithrombins is tested by western blotting using the same couple of antibodies as described before, and electrophoresis on 10% acrylamide/bisacrylamide gel in native and denaturing conditions followed by coomassie brilliant blue R-250 staining (FIG. 4). Then, the antithrombin preparation is aliquoted and stored at −80° C. before use for functional assay. The same procedure is used to purify plasma antithrombin (used as internal reference) from human plasma.

Molecule	elution from heparin affinity column compared with wild type antithrombin
AT-N135Q-R393H: human antithrombin with substitution at 393 by Histidine and at 135 by Glutamine	higher ionic strength than wild type antithrombin
AT-N135Q-Pro394: human antithrombin with Proline inserted between 393 and 394 and substitution at 135 by Glutamine (protein, listed as Homo sapiens) HGSPVDICTAKPRDIPMNPMCIYRSPEKKATEDEGSEQKIPEATNRRVWELSKANSRFATTFYQHLADSKNDNDNIFLSPLSISTAFAMTKLGACNDTLQQLMEVFKFDTISEKTSDQIHFFFAKLNCRLYRKAQKSSKLVSANRLFGDKSLTFNETYQDISELVYGAKLQPLDFKENAEQSRAAINKWVSNKTEGRITDVIPSEAINELTVLVLVNTIYFKGLWKSKFSPENTRKELFYKADGESCSASMMYQEGKFRYRRVAEGTQVLELPFKGDDITMVLILPKPEKSLAKVEKELTPEVLQEWLDELEEMMLVVHMPRFRIEDGFSLKEQLQDMGLVDLFSPEKSKLPGIVAEGRDDLYVSDAFHKAFLEVNEEGSEAAASTAVVIAGRPSLNPNRVTFKANRPFLVFIREVPLNTIIFMGRVANPCVK	higher ionic strength than wild type antithrombin
AT-N135Q-ΔR393: human antithrombin with deletion of position 393 and substitution at 135 by Glutamine (protein, listed as Homo sapiens) HGSPVDICTAKPRDIPMNPMCIYRSPEKKATEDEGSEQKIPEATNRRVWELSKANSRFATTFYQHLADSKNDNDNIFLSPLSISTAFAMTKLGACNDTLQQLMEVFKFDTISEKTSDQIHFFFAKLNCRLYRKAQKSSKLVSANRLFGDKSLTFNETYQDISELVYGAKLQPLDFKENAEQSRAAINKWVSNKTEGRITDVIPSEAINELTVLVLVNTIYFKGLWKSKFSPENTRKELFYKADGESCSASMMYQEGKFRYRRVAEGTQVLELPFKGDDITMVLILPKPEKSLAKVEKELTPEVLQEWLDELEEMMLVVHMPRFRIEDGFSLKEQLQDMGLVDLFSPEKSKLPGIVAEGRDDLYVSDAFHKAFLEVNEEGSEAAASTAVVIAGSLNPNRVTFKANRPFLVFIREVPLNTIIFMGRVANPCVK	higher ionic strength than wild type antithrombin
AT-N135Q-ΔS394: human antithrombin with deletion of position 394 and substitution at 135 by Glutamine (protein, listed as Homo sapiens) HGSPVDICTAKPRDIPMNPMCIYRSPEKKATEDEGSEQKIPEATNRRVWELSKANSRFATTFYQHLADSKNDNDNIFLSPLSISTAFAMTKLGACNDTLQQLMEVFKFDTISEKTSDQIHFFFAKLNCRLYRKAQKSSKLVSANRLFGDKSLTFNETYQDISELVYGAKLQPLDFKENAEQSRAAINKWVSNKTEGRITDVIPSEAINELTVLVLVNTIYFKGLWKSKFSPENTRKELFYKADGESCSASMMYQEGKFRYRRVAEGTQVLELPFKGDDITMVLILPKPEKSLAKVEKELTPEVLQEWLDELEEMMLVVHMPRFRIEDGFSLKEQLQDMGLVDLFSPEKSKLPGIVAEGRDDLYVSDAFHKAFLEVNEEGSEAAASTAVVIAGRLNPNRVTFKANRPFLVFIREVPLNTIIFMGRVANPCVK	higher ionic strength than wild type antithrombin
AT-N135Q-ΔR393-S394: human antithrombin with deletion of positions 393 and 394 and substitution at 135 by Glutamine (protein, listed as Homo sapiens) HGSPVDICTAKPRDIPMNPMCIYRSPEKKATEDEGSEQKIPEATNRRVWELSKANSRFATTFYQHLADSKNDNDNIFLSPLSISTAFAMTKLGACNDTLQQLMEVFKFDTISEKTSDQIHFFFAKLNCRLYRKAQKSSKLVSANRLFGDKSLTFNETYQDISELVYGAKLQPLDFKENAEQSRAAINKWVSNKTEGRITDVIPSEAINELTVLVLVNTIYFKGLWKSKFSPENTRKELFYKADGESCSASMMYQEGKFRYRRVAEGTQVLELPFKGDDITMVLILPKPEKSLAKVEKELTPEVLQEWLDELEEMMLVVHMPRFRIEDGFSLKEQLQDMGLVDLFSPEKSKLPGIVAEGRDDLYVSDAFHKAFLEVNEEGSEAAASTAVVIAGLNPNRVTFKANRPFLVFIREVPLNTIIFMGRVANPCVK	higher ionic strength than wild type antithrombin
